Test results: article PMC6587457, “The green microalga Lobosphaera incisa harbours an arachidonate 15S‐lipoxygenase” (Plant Biology (Stuttgart, Germany), 2018)

T1: LiLOX (Lobosphaera incisa, UniProt A0A3G6V563)
T1 construct: full length 994 aa; cloned without N-terminal putative plastid signal peptide of 62 residues (ChloroP); N-terminal His tag, pET28a; E. coli BL21 Star; IMAC and SEC
T1 sequence (A0A3G6V563 63-994): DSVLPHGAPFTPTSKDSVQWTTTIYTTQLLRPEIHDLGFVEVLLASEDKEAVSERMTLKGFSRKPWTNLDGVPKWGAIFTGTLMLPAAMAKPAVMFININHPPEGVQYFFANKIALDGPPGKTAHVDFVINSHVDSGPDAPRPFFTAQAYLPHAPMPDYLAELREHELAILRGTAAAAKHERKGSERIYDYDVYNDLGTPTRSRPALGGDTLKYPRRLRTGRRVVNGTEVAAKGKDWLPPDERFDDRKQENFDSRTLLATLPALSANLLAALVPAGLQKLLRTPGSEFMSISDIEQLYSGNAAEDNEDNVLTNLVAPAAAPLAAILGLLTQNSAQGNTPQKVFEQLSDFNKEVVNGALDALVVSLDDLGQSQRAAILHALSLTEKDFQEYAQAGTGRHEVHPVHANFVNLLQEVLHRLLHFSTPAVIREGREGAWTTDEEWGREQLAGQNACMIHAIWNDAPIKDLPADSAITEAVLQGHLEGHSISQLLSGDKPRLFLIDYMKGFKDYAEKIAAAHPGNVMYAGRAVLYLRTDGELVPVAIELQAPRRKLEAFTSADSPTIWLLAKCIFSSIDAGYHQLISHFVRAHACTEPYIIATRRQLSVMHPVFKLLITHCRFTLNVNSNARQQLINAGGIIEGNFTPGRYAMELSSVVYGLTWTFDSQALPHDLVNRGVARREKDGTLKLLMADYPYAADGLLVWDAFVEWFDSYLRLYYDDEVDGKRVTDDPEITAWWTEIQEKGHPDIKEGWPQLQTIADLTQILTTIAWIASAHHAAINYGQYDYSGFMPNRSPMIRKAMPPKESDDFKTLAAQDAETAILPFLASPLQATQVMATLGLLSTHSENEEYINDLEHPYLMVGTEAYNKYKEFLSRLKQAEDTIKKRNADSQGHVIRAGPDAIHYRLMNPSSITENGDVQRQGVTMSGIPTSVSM


Tests used:
LiLOX = target: T1, LiLOX; assay: absorbance at […] nm (conjugated diene); type: biochemical; conditions: Hill equation fit (not Michaelis-Menten), 20 mM Bis-TRIS propane pH 7.5, 30 °C, 1 μg enzyme, 10-100 μM substrate
purified protein = substrate: CCCCC/C=C\C/C=C\C/C=C\C/C=C\CCCC(=O)O; assay: purified protein; type: biochemical, Lobosphaera incisa; conditions: Hill equation fit (not Michaelis-Menten), 20 mM Bis-TRIS propane pH 7.5, 30 °C, 1 μg enzyme, 10-100 μM substrate

Row | Km (LiLOX) | Molecule | K0.5 (purified protein) | kcat (purified protein) | kcat/Km (purified protein)
1 | 31.2 ± 2.78 µM | CCCCC/C=C\C/C=C\CCCCCCCC(=O)O [18:2(n‐6)] |  |  | 
2 | 55.5 ± 4.1 µM | CC/C=C\C/C=C\C/C=C\CCCCCCCC(=O)O [18:3(n‐3)] |  |  | 
3 |  | LiLOX (Lobosphaera incisa) (protein, full length 994 aa; cloned without N-terminal putative plastid signal peptide of 62 residues (ChloroP); N-terminal His tag, pET28a; E. coli BL21 Star; IMAC and SEC) DSVLPHGAPFTPTSKDSVQWTTTIYTTQLLRPEIHDLGFVEVLLASEDKEAVSERMTLKGFSRKPWTNLDGVPKWGAIFTGTLMLPAAMAKPAVMFININHPPEGVQYFFANKIALDGPPGKTAHVDFVINSHVDSGPDAPRPFFTAQAYLPHAPMPDYLAELREHELAILRGTAAAAKHERKGSERIYDYDVYNDLGTPTRSRPALGGDTLKYPRRLRTGRRVVNGTEVAAKGKDWLPPDERFDDRKQENFDSRTLLATLPALSANLLAALVPAGLQKLLRTPGSEFMSISDIEQLYSGNAAEDNEDNVLTNLVAPAAAPLAAILGLLTQNSAQGNTPQKVFEQLSDFNKEVVNGALDALVVSLDDLGQSQRAAILHALSLTEKDFQEYAQAGTGRHEVHPVHANFVNLLQEVLHRLLHFSTPAVIREGREGAWTTDEEWGREQLAGQNACMIHAIWNDAPIKDLPADSAITEAVLQGHLEGHSISQLLSGDKPRLFLIDYMKGFKDYAEKIAAAHPGNVMYAGRAVLYLRTDGELVPVAIELQAPRRKLEAFTSADSPTIWLLAKCIFSSIDAGYHQLISHFVRAHACTEPYIIATRRQLSVMHPVFKLLITHCRFTLNVNSNARQQLINAGGIIEGNFTPGRYAMELSSVVYGLTWTFDSQALPHDLVNRGVARREKDGTLKLLMADYPYAADGLLVWDAFVEWFDSYLRLYYDDEVDGKRVTDDPEITAWWTEIQEKGHPDIKEGWPQLQTIADLTQILTTIAWIASAHHAAINYGQYDYSGFMPNRSPMIRKAMPPKESDDFKTLAAQDAETAILPFLASPLQATQVMATLGLLSTHSENEEYINDLEHPYLMVGTEAYNKYKEFLSRLKQAEDTIKKRNADSQGHVIRAGPDAIHYRLMNPSSITENGDVQRQGVTMSGIPTSVSM | 12.64 ± 1.1 µM | 10.1 ± 0.454 s⁻¹ | 799000 M⁻¹ s⁻¹
